Measured values from patent US20070054353A1, “Nuclear receptor transcriptional corepressor and uses thereof” (priority 2002, published 2007).

T1: PR (Homo sapiens, UniProt P06401)
T1 construct: expressed in transfected cells; host or cells: COS-7
T1 sequence (P06401 1-933): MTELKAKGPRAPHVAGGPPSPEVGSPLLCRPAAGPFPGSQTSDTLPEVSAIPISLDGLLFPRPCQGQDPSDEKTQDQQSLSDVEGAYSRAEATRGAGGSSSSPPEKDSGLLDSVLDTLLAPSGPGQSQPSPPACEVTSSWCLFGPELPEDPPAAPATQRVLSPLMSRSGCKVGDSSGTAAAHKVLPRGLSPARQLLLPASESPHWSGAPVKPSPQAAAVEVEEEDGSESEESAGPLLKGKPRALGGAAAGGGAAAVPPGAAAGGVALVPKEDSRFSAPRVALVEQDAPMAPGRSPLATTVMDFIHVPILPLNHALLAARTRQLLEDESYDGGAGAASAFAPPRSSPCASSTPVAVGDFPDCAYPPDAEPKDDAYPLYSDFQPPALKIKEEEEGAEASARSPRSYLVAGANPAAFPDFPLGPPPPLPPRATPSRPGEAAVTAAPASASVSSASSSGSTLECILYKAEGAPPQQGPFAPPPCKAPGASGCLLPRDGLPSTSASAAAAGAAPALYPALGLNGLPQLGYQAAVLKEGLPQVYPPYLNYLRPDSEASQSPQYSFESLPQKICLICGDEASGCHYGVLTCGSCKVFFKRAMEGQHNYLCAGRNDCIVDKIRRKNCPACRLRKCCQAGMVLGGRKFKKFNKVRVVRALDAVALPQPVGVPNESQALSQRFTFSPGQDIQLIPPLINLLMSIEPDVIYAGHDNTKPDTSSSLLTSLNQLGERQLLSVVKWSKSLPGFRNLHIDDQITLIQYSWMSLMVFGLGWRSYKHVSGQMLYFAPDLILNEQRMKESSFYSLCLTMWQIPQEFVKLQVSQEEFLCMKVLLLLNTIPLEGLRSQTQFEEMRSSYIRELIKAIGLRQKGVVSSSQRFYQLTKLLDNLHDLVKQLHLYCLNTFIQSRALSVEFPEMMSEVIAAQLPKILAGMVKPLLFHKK

T2: ERα (Homo sapiens, UniProt P03372)
T2 construct: expressed in transfected cells; host or cells: COS-7
T2 sequence (P03372 1-595): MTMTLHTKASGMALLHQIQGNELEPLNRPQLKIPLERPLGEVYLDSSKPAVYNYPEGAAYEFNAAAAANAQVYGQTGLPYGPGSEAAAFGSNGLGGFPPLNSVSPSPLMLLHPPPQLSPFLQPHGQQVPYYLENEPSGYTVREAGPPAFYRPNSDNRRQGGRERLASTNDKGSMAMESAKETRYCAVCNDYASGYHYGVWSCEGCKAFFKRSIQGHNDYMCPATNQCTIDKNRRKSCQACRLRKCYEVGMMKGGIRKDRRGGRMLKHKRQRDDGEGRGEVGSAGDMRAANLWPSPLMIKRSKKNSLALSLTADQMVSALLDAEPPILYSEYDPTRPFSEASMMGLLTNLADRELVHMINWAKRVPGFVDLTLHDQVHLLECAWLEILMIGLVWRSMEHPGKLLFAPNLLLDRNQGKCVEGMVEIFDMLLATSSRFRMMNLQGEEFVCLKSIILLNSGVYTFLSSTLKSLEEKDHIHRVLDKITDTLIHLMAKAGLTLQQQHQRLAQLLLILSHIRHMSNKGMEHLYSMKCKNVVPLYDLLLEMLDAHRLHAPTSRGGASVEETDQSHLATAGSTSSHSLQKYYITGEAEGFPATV

T3: VDR (Homo sapiens, UniProt P11473)
T3 construct: expressed in transfected cells; host or cells: COS-7
T3 sequence (P11473 1-427): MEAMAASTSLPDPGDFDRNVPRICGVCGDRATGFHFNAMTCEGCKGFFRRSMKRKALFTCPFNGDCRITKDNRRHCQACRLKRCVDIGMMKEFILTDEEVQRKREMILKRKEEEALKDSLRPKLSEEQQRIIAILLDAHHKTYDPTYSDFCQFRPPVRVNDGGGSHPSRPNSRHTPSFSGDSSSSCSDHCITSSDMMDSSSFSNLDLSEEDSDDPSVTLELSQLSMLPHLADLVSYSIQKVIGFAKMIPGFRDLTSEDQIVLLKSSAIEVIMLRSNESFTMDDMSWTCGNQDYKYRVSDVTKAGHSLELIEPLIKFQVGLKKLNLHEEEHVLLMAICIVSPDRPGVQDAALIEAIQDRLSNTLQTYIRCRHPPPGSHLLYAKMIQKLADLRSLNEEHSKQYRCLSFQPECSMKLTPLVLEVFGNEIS

T4: GR (Homo sapiens, UniProt P04150)
T4 construct: expressed in transfected cells; host or cells: COS-7
T4 sequence (P04150 1-777): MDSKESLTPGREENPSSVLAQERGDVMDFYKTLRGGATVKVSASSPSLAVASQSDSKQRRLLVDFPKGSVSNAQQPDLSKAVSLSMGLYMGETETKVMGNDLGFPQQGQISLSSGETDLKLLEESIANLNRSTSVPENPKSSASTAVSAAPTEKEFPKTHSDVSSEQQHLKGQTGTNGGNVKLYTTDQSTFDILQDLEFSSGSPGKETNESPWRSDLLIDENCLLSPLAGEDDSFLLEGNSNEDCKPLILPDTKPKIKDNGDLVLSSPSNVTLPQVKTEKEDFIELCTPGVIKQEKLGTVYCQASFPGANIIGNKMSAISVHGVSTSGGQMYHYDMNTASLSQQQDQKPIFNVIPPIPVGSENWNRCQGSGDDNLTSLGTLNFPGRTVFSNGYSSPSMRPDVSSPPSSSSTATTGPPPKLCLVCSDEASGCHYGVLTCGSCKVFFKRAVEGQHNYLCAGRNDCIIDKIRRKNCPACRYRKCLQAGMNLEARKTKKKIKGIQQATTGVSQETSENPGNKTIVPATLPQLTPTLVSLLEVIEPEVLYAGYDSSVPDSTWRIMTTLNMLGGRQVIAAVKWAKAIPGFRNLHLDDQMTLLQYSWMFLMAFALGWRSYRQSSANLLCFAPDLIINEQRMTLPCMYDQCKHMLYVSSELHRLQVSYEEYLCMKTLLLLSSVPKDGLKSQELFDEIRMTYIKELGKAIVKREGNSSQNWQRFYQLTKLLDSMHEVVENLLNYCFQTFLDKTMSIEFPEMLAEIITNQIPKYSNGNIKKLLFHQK

T5: interaction of LCoR and ERα (Homo sapiens, UniProt P03372)
T5 construct: expressed in transfected cells; host or cells: COS-7
T5 sequence (P03372 1-595): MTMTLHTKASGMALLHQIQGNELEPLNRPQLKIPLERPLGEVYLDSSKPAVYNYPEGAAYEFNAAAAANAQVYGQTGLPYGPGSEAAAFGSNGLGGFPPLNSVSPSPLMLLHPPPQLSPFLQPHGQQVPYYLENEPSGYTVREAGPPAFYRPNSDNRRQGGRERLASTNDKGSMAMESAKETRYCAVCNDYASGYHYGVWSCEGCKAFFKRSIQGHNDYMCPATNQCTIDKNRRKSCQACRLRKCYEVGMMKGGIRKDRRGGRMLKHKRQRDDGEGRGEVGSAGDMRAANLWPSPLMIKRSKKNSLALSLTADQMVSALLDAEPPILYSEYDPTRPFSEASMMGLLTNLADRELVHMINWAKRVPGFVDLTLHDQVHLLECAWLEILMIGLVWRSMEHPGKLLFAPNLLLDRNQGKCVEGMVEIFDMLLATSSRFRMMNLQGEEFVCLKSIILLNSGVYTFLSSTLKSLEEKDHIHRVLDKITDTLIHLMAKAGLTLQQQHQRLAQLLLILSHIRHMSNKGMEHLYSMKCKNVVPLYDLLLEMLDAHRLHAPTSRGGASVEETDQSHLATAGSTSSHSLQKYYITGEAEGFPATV

B1: LCoR: novel 433 amino acid nuclear receptor corepressor polypeptide (SEQ ID NO:2) with a single LXXLL NR box (protein, listed as Homo sapiens)
chain: MQRMIQQFAAEYTSKNSSTQDPSQPNSTKNQSLPKASPVTTSPTAATTQNPVLSKLLMADQDSPLDLTVRKSQSEPSEQDGVLDLSTKKSPCAGSTSLSHSPGCSSTQGNGRPGRPSQYRPDGLRSGDGVPPRSLQDGTREGFGHSTSLKVPLARSLQISEELLSRNQLSTAASLGPSGLQNHGQHLILSREASWAKPHYEFNLSRMKFRGNGALSNISDLPFLAENSAFPKMALQAKQDGKKDVSHSSPVDLKIPQVRGMDLSWESRTGDQYSYSSLVMGSQTESALSKKLRAILPKQSRKSMLDAGPDSWGSDAEQSTPGQPYPTSDQEGDPGSKQPRKKRGRYRQYNSEILEEAISVVMSGKMSVSKAQSIYGIPHSTLEYKVKERLGTLKNPPKKKMKLMRSEGPDVSVKIELDPQGEAAQSANESKNE
B2: LCoR-LSKAA: LCoR with point mutagenesis of NR box LSKLL to LSKAA at position 53 (protein)
chain: MQRMIQQFAAEYTSKNSSTQDPSQPNSTKNQSLPKASPVTTSPTAATTQNPVLSKAAMADQDSPLDLTVRKSQSEPSEQDGVLDLSTKKSPCAGSTSLSHSPGCSSTQGNGRPGRPSQYRPDGLRSGDGVPPRSLQDGTREGFGHSTSLKVPLARSLQISEELLSRNQLSTAASLGPSGLQNHGQHLILSREASWAKPHYEFNLSRMKFRGNGALSNISDLPFLAENSAFPKMALQAKQDGKKDVSHSSPVDLKIPQVRGMDLSWESRTGDQYSYSSLVMGSQTESALSKKLRAILPKQSRKSMLDAGPDSWGSDAEQSTPGQPYPTSDQEGDPGSKQPRKKRGRYRQYNSEILEEAISVVMSGKMSVSKAQSIYGIPHSTLEYKVKERLGTLKNPPKKKMKLMRSEGPDVSVKIELDPQGEAAQSANESKNE

Experiments:
Format in all cases: cell-based
PR = target: T1, PR; assay: Transient transfection luciferase reporter, PR transactivation in COS-7 cells; settings: 1 μg of transfected LCoR, COS-7; one range given for GR, PR and VDR together
Protocol: (§1) All cell lines were cultured under the recommended conditions. COS-7 cells grown in […] in DMEM without phenol red, supplemented with 10% FBS were transfected in medium without serum with lipofectamine 2000 (Invitrogen, Burlington, Ont.) with 100 ng of nuclear receptor expression vectors as indicated, 200 ng of TIF-2 or TIF-2.1, as indicated, 250 ng of reporter plasmid, 250 ng of infemal control vector pCMV-βgal, and various concentrations of LCoR/pSG5 or LCoR-LSKAA/pSG5 expression vectors and pSG5 carrier. Medium was replaced 24 h after transfection by a medium containing charcoal-stripped serum and ligand (100 nM) and TSA (3 μM) for 18 h, as indicated. Cells were harvested in 200 […] of reporter lysis buffer (Promega).
(§2) COS-7 cells were cotransfected with expression vectors for ERα HEG0 (A and C) or GR (D) or PR (F) or VDR (H), ERE3-TATA-pXP2 (A and C), GRE5/pXP2 (D and F) or VDRE3tk/pXP2 (H) luciferase reporter vectors, pCMV-β-gal as internal control, and LCoR/pSG5 or LSKAA/pSG5 expression vectors as indicated. Cells were treated with 10^−7M of hormones (solid bars) or vehicle (open bars). Normalized luciferase activities (RLU) are the means±SEM from at least 3 experiments. […] Cells were transfected as in FIG. 5A with LCoR, TIF-2 or TIF2.1 as indicated. […]

ERα = target: T2, ERα; assay: Transient transfection luciferase reporter, ERα transactivation in COS-7 cells; settings: coexpression in COS-7 cells, 10^−7M hormone, ERE3-TATA-pXP2 reporter
Protocol: as §1, §2

VDR = target: T3, VDR; assay: Transient transfection luciferase reporter, VDR transactivation in COS-7 cells; settings: 1 μg of transfected LCoR, COS-7; one range given for GR, PR and VDR together
Protocol: as §1, §2

GR = target: T4, GR; assay: Transient transfection luciferase reporter, GR transactivation in COS-7 cells; settings: 1 μg of transfected LCoR, COS-7; one range given for GR, PR and VDR together
Protocol: as §1, §2

nuclear receptors = assay: Ligand-dependent transactivation by nuclear receptors (summary)
Protocol: as §1, §2

5×17 mer-tk promoter = assay: GAL4-LCoR repression of 5×17 mer-tk promoter in COS-7 cells
Protocol: as §1, §2

[1] = target: T5, interaction of LCoR and ERα; assay: BRET assay of LCoR-ERα interaction in living COS-7 cells; settings: rluc-LCoR-LSKAA versus rluc-LCoR, COS-7 cells
Protocol: Readings were started immediately after coelenterazine H addition, and 10 repeated measures were taken.
Interaction of ERα and LCoR in vivo was further tested by bioluminescence resonance energy transfer (BRET) in living COS-7 cells transiently cotransfected with plasmids expressing ERα-EYFP and LCoR-rluc fusion proteins. […] BRET ratios were calculated as described in experimental procedures.

Row | Molecule | repression of ligand-activated transcription, progesterone receptor (PR) | repression of hormone-dependent transactivation by ERα (ERα) | repression of ligand-activated transcription, vitamin D receptor (VDR) | repression of ligand-activated transcription, glucocorticoid receptor (GR) | inhibition of ligand-dependent transactivation by nuclear receptors (nuclear receptors) | effect on the 5×17 mer-tk promoter (5×17 mer-tk promoter) | effect of NR box mutation on interaction with ERα (BRET) [1]
1 | B1 | 2.2-5 fold | dose-dependent repression | 2.2-5 fold | 2.2-5 fold | up to 5 fold | had no effect | –
2 | B2 | – | had no effect | – | – | – | – | largely disrupted hormone-dependent interaction and reduced hormone-independent interaction of the two proteins by approximately two-fold
